The DeepSol protein solubility set

Test: soluble on expression in E. coli; label from the status in PepcDB or PDB records

## MCTGLALETKDGLHLFGRNMDIEYSFNQSIIFIPRNFKCVNKSNKKELTTKYAVLGMGTIFDDYPTFADGMNEKGLGCAGLNFPVYVSYSKEDIEGKTNIPVYNFLLWVLANFSSVEEVKEALKNANIVDIPISENIPNTTLHWMISDITGKSIVVEQTKEKLNVFDNNIGVLTNSPTFDWHVANLNQYVGLRYNQVPEFKLGDQSLTALGQGTGLVGLPGDFTPASRFIRVAFLRDAMIKNDKDSIDLIEFFHILNNVAMVRGSTRTVEEKSDLTQYTSCMCLEKGIYYYNTYENNQINAIDMNKENLDGNEIKTYKYNKTLSINHVN
  soluble on expression in E. coli: soluble

## MGSDKIHHHHHHMNYTNEVAKMTCVAKGPNHGPAPIPEEGKWVSAKEIKDISGLTHGVGRCAPQQGACKLTLNVKEGIIQEALVETIGCSGMTHSAAMAAEILSGKTILEALNTDLVCDAINTAMRELFLQIVYGRTQTAFSEGGLPVGAGLEDLGKGHRSQVGTMYSSAAKGPRYLEMVEGYVTKTGLDENNEIIGYEFINFGKMMDMIKQGMDANEAMKKATGNYGRFADAVKVIDPREE
  soluble on expression in E. coli: not soluble

## MQSITPPLIAVIGSDASGKSTVCEHLITVVEKYGAAERVHLGKQAGNVGRAVTKLPLMGKSLHKTIERNQVKTAKKLPGPVPALVITAFVARRLLRFRHMLACRRRGLIVLTDRYPQDQIPGAYDGTVFPPNVEGGRFVSWLASQERKAFHWMASHKPDLVIKLNVDLEVACARKPDHKRESLARKIAITPQLTFGGAQLVDIDANQPLEQVLVDAEKAITDFMTARGYH
  soluble on expression in E. coli: not soluble

## MPINAAYRGPADLPEVIPVFPLAGALLLPRGQMPLNIFEPRYLAMIDDALRDGHRLIGMIQPDAAHSSETAEKPSLFNVGCVGRITQLAESGDGRYILELTGVSRFKVVDELQVLTPYRQCKVDYFPFGDDFTARKGEDEVDRETLLSVLTDFLKANNLKVDWDGVESAPNEALVNALAMMSPYGPPEKQALLEAPDLKTRAEILIAVTEMDLAKKRTSGDPPLQLEHHHHHH
  soluble on expression in E. coli: not soluble

## MHNQAPIQRRKSTRIYVGNVPIGDGAPIAVQSMTNTRTTDVEATVNQIKALERVGADIVRVSVPTMDAAEAFKLIKQRVNVPLVADIHFDYRIALKVAEYGVDCLRINPGNIGNEERIRMVVDCARDKNIPIRIGVNAGSLEKDLQEKYGEPTPQALLESAMRHVDHLDRLNFDQFKVSVKASDVFLAVESYRLLAKQIDQPLHLGITEAGGARSGAVKSAIGLGLLLSEGIGDTLRVSLAADPVEEIKVGFDILKSLRIRSRGINFIACPTCSRQEFDVIGTVNALEQRLEDIITPMDVSIIGCVVNGPGEALVSTLGVTGGNKKSGLYEDGVRKDRLDNNDMIDQLEARIRAKASQLDEARRIDVQQVGKIITLEHHHHHH
  soluble on expression in E. coli: not soluble

## MASPSKAVIVPGNGGGDVTTHGWYGWVKKELEKIPGFQCLAKNMPDPITARESIWLPFMETELHCDEKTIIIGHSSGAIAAMRYAETHRVYAIVLVSAYTSDLGDENERASGYFTRPWQWEKIKANCPYIVQFGSTDDPFLPWKEQQEVADRLETKLHKFTDCGHFQNTEFHELITVVKSLLKVPALEHHHHHH
  soluble on expression in E. coli: soluble

## KNVLILGAGGQIARHVINQLADKQTIKQTLFARQPAKIHKPYPTNSKIIMGDVLNHAALKQAMQGQDVVYANLTGEDLDIQANSVIAAMKACDVKRLIFVLSLGIYNEVPGKFGEWNNAVIGEPLKPFRRAADAIEASGLEYTILRPAWLTDEDIIDYELTSRNEPFKGTIVSRKSVAALITDIINKPEKHIGENIGINQPGTDG
  soluble on expression in E. coli: not soluble

## NKNLWATIRGNFTYASSKFSKYEEPDYSATPWRSKIGTKLSQEFGLIAERLFVDEEDVANSPKQQFGEYMAGDIKYKDINHDGIIDEQDRVPIGYPTTPEIIYGFGFSIGYKDFDFNCFFQGSSRSSFFISPADISPFIQPNDPNNELGGKQATNALLQIVADDHWSEANQNMYAFWPRLSDTAISNNNQKSTWWLRDGTFLRMKSAEIGYTLPKRISSKAKLENFRIYVSGTNLFNISKFKTWDTEMGGNGLGYPVQRVFNIGVQLSL
  soluble on expression in E. coli: not soluble

## MRRTLVVPDVLLLGTLLAGLLLLSGCEGDYRPRAVGPIGEITVVMDSSHWTGPSGEALRANVTPWVETLPVSERSFQLRHLELTDERTYERVQDLKNVIIAAPLSDSTNETSFLRRRLSDEAEQAILDGQTAVVPKPNLWRRSQRIYYVAAASPDALAETFQSQGTQIRDTFTEATLQRMDRNMYEDDRRSALEDTLMQRHGFAVNMQSDFQIAVDTTTGSEGFVWLRRLLAQTRREFFVYYVEDVSPDQITPEWIYNTRDSLTRRHLRGNVRGFAKIDYRRPLKTEQRSFLDRYAYDSRGLWYMVAPLGGGNELRPVGGGGPFVNYTFYDQATDRVYMLDGSIFAPDNDKIDLLRQMEVMARTFRTAEGSRSPDASPTAAKLEHHHHHH
  soluble on expression in E. coli: not soluble

## AHHHHHHGSIILDNHFHVDPNHGLFLEAVKQFQRAGGTHLIVVYKTAHDYGFPGLKAEDFMKAMDFHIELVEKINRETQVKAYAVVGVHPAEFDYLARNKGLEFARNEVMKALEYAQKLCLEGKAVGIGEVGRPHYEVPQQIWEVSIEIMKYAMELAKDADCAVQLHTESFNEEKFRELGEYIREVGIKPYKVVKHFSPPLVNVAKEVGVFPSIIASKKNIEEAIKQGNRFLMETDYIDDKRRPGAVLGPKTVPKRTKEFLQRGIFTEEDVYKIHVENPKKVYGIEI
  soluble on expression in E. coli: not soluble

## MGQDHIRYDILAQDALRGVIRKVLGEVAATGRLPGDHHFFITFLTGAPGVRISQHLKSKYAEQMTIVIQHQFWDMKVTETGFEIGLSFSDTPEKLVIPYNAIRGFYDPSVNFELEFDVPLAKEEEMEEAEITAYPVSHEAKPASETPKSGEEKKEGSVVSLDAFRKKQLEHHHHHH
  soluble on expression in E. coli: soluble

## YVLAVTACPTGIAHTYMARDALKKQAEKMNIKIKVETNGSSGIKNHLTEQDIERATGIIVAADVHVETDRFDGKNVVEVPVADGIKRPEELINTALDTNRKPF
  soluble on expression in E. coli: not soluble

## MAHHHHHHMRARRSCKFAEYLSTYAILEHIGIHPTTLIEKRDAAVGVGVYVRDACDAGTALLAVPSKRFCTTSVLSRVGLKTSFCSPWRADSEVPSTAFAGPTCDVQGGILSFLTGSTQWPELAWRLALEQHRSVSPLWGWLQSLPSVEELADRRDVAERQCRVHHTMLLPYYLKGRQRIREETVAAYSQLRAQNILPCFDRFAWAVDVVLSRGLLLPTAWPTAGGVFTNSTTDGEHEEEDSDPLPHTSLECGVVPFLDLVNAPDDVGRVVNADIEIATSLETLPKFLTDELAADATARGRGGDDLAEVKRLLETHYYLCLTLRKPLRASEEVILEWQVPVLTTEVLTAAEDAIVSRFLKYMF
  soluble on expression in E. coli: not soluble

## MSLENYLEEELIIGGIEINYLYVCKTKLWYFVRGITMEQESDFVDLGKFLHEKSYFGEEKEVQIGSIKIDFIKKRDVIEIHEVKRGKQMEKAHIMQVLYYIYYLNSLGIKSKAILHYPKLKEIKEIELKENNKEEIKRAIKEIEYIKSLKEPPEPIYQKICKNCAYYELCFIEGHHHHHH
  soluble on expression in E. coli: soluble

## QVQLQQSGPELVKPGALVKISCKASGYTFTNYDIHWVKQRPGQGLEWIGWIYPGDGSTKYNEKFKGKATLTADKSSSTAYMHLSSLTSEKSAVYFCAREWAYWGQGTLVTVSAAKTTAPSVYPLAPGCGDTTGSSVTLGCLVKGYFPEPVTLTWNSGSLSSGVHTFPAVLQSDLYTLSSSVTVTSSTWPSQSITCNVAHPASSTKVDKKIEPRGPTIKPC
  soluble on expression in E. coli: soluble

## NDAIIILNGEKVLDLNKKGREAFGLGARELDNISIGSLLSEKDLPAVRDALKTTLENGSACFEMKFRKQNGEVIDVEVSSSFLSLEEGEIQCVARD
  soluble on expression in E. coli: not soluble

## MKYGPSKDQIKQMAEEVREAAIRVKGEKELRMCPKTGHGSEWAGQLAVDANGAMNTYQPEGKYGDYGIGEDNRYLGTAKDWATLESGYQWIPGEFERYLMPEPHDFDALVDSAQKLTKDFVNVGQAKDPANVPAGTPTSVAPGTSAVDQPIRLSMGFTSDWSGHFADGFQRYLSEIPDVTRRQAVVAETLYEAAVAARDIYGAGREELGNIAKNAKLAIEGVEAGKSTGGCAGSSMATGFALIAAAATVAAGVSTLPISGPAVISGAMAAGNWTIVVGISSAIAAGSPLIPAPEKIELLASDVDGVIEKMKEALTKREKTVTDSEEAFAKKLGANSEMVEKNKVTGKDGGKSQDNAFFPRRPAMLDMSTDLKDLKDPATGFTHPVAAS
  soluble on expression in E. coli: not soluble

## MSLKPGTLISMMTEEEANSITHLTLTGKLNAEDFRHLRDEFPSLKVLDISNAEIKMYSGKAGTYPNGKFYIYMANFVPAYAFSNVVNGVTKGKQTLEKVILSEKIKNIEDAAFKGCDNLKICQIRKKTAPNLLPEALADSVTAIFIPLGSSDAYRFKNRWEHFAFIEGEPLETTIQVGAMGKLEDEIMKAGLQPRDINFLTIEGKLDNADFKLIRDYMPNLVSLDISKTNATTIPDFTFAQKKYLLKIKLPHNLKTIGQRVFSNCGRLAGTLELPASVTAIEFGAFMGCDNLRYVLATGDKITTLGDELFGNGVPSKLIYKEGHHHHHH
  soluble on expression in E. coli: not soluble

## MGSDKIHHHHHHMSRTLIIYSTVDGQTKAICDQIAEQCKSDTQPVTMVSLEEAQSVNLSYFDKVIIGASIRYGKHRPELFQYVNRHRAVLNGKKNAFFTVNVVARKPEKNTPETNPYMKKFLQLSLWQPQQLGVFAGKIDYPKYRFFDKFMIRFIMWITKGPTDTSGTYEFTDWDKVQEFAKAFSER
  soluble on expression in E. coli: not soluble

## MGSDKIHHHHHHMRILFVTEYYPPIHMGGAEISLKILVNKLAKLGHEVTVITPNYTKYKTETEISKNLRVIRFKSWRYFLFKKQLRKISSEIYLRKKSSYYFQLNGYIKLSSFEIMKVVKELLQKEDFDVIHANNLESILGLSKLQVNTKVAHLRDFALLCWNRGLNNNGKLCEGCSLTNIRQCMGANYILGSALVHEINKRKNVLGKFDKILAISNFVKMEFVKRLNIPTEKISVLYNPITQEIVSNISKEEARQYLNLPEDKTIVLFVGTLTELKGAHLIPKIAKELPEHLFVVVGDGPLRKMFTEFPLENVLYVGYQPMEILRHYYKASDILLVPSLWHEPFGRVIIEGAANGCYVVGSDKGAIPEIIHWIGYGTSVPPQSKYFVEAIKNAPQTTKHEKLKIKIINYSHKYAEKFIKAIME
  soluble on expression in E. coli: not soluble

## MGHHHHHHSHMSNWLEHSVQVEVEAPIDLVWGLWADLEQMPNWMKWIDSVKVPPENPDLSLWKLNTGGLEFTWKSRITKVITNQIIQWESIDGLPNQGAIRFYDRHGHSIVKMTISYAIPGFLGKIMDNLFLG
  soluble on expression in E. coli: not soluble

## MSLRTIKNLRDMIEQSSKLFANKDAFRVKTKDNSYRGITFAEFKNDIDAFGTALLDLLGTEKGFVAVIGENRYEWCVTYLATINGVGVVIPLDKELPLPELENLLKQSNANAIVYSGKFHDAIKEMSSRLSNIKYFINMNTNEHEDDKFLSFWVLLEKGKKLLESGKKDYLNAPIDENAMSAMIFTSGTTGQAKAVMLSHKNICSNMMAVSASVYMDSTDSVLSILPLHHTYECTAGFLTMIYNGATITFNEGLKYIGKNLKEAQPTILILVPLILESMYNKIWEQASKDKSLKFKLKAGLFISNLLYKVFKIDIRRKLFKSVIDNVGGKLRLVISGAAALDPEVAKGFEAMGIKVLQGYGLTEASPIVAVNRDKSYRHDSVGLPLPGLDVEIINPDKEGFGEIIVKGDSVMLGYYNNDDATKAVLKDGWLYTGDLGRMDEKGFIYITGRKKNIIVTKTGKNIFPEEVEAYLNKSPYIKESLVSGRENDKNDETIVVAQIVPDMDAIKAKLKTDTVPSPEEVYKLIKAEIRAINKNMPVYKRVVDITIRENEFAKTSSKKIKRYLEKTNEGHHHHHH
  soluble on expression in E. coli: soluble

## SNTQAERSIIGMIDMFHKYTRRDDKIDKPSLLTMMKENFPNFLSACDKKGTNYLADVFEKKDKNEDKKIDFSEFLSLLGDIATDYHKQSHGAAPCSGGSQ
  soluble on expression in E. coli: soluble
